Laboratory results as given in patent publication US20120237496.

T1: Peptide-3
T1 chain: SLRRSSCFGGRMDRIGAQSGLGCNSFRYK

T2: Peptide-13 (not fully specified)
T2 chain: CRPPGFSPFRK

T3: Peptide-6a
T3 chain: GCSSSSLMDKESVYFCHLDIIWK

T4: Peptide-5 (not fully specified)
T4 chain: CDRVYIHPFHLK

T5: Peptide-8 (not fully specified)
T5 chain: CQLYENKPRRPYILK

T6: Peptide-6b
T6 chain: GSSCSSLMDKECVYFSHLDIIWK


Tests used:
[1] = biological target: Peptide-1
[2] = biological target: Peptide-2
[3] = biological target: T1, Peptide-3
[4] = biological target: T2, Peptide-13
[5] = biological target: T3, Peptide-6a
[6] = biological target: Peptide-7
[7] = biological target: T4, Peptide-5
[8] = biological target: T5, Peptide-8
[9] = biological target: Peptide-4
[10] = biological target: T6, Peptide-6b

Row | Protein | activity relative to G399V/G714K (B1) [1] | kapp ratio vs G399V/G714K (B1) [1] | activity relative to G399V/G714K (B1) [2] | kapp ratio vs G399V/G714K (B1) [2] | kapp ratio vs G399V/G714K (B1) [3] | kapp ratio vs G399V/G714K (B1) [4] | activity relative to G399V/G714K (B1) [5] | kapp ratio vs G399V/G714K (B1) [5] | activity relative to G399V/G714K (B1) [6] | kapp ratio vs G399V/G714K (B1) [6] | activity relative to G399V/G714K (B1) [7] | kapp ratio vs G399V/G714K (B1) [7] | kapp ratio vs G399V/G714K (B1) [8] | activity relative to G399V/G714K (B1) [9] | kapp ratio vs G399V/G714K (B1) [9] | kapp ratio vs G399V/G714K (B1) [10]
1 | C10 (protein) YPYDVPDYAYPYDVPDYAYPYDVPDYAGSYDDGICKSSDCIKSAARLIQNMDATTEPCTDFFKYACGGWLKRNVIPETSSRYGNFDILRDELEVVLKDVLQEPKTEDIVAVQKAKALYRSCINESAIDSRGGEPLLKLLPDIYGWPVATENWEQKYGASWTAEKAIAQLNSKYGKKVLINLFVGTDDKNSVNHVIHIDQPRLGLPRRDYYECTGIYKEACTAYVDLMISVARLIRQEERLPIDENQLALEMNKVMELEKEIANATAKPEDRNDPMLLYNKMTLAQIQNNFSLEINGKPFSWLNFTNEIMSTVNISITNEEDVVVYAPEYLTKLKPILTKYSARDLQNLMSWRFIMDLVSSLSRTYKESRNAFRKALYVTTSETATWRRCANYVNGNMMNAVGRLYVEAAFAGESKHVVEDLIAQIREVFIQTLDDLTWMDAETKKRAEEKALAIKERIGYPDDIVSNDNKLNNEYLELNYKEDEYFENIIQNLKFSQSKQLKKLREKVDKDEWISGAAVVNAFYSSGRNQIVFPAGILQPPFFSAQQSNSLNYGGIGMVIGHEITHGFMDNVRNPNKDDDLVDWWTQQSASNFKEQSQCMVYQYGNFSWDLAGGQHLNGINTLGENIADNGGLGQAYRAYQNYIKKNGEEKLLPGLDLNHKQLFFLNFAQVWCGTYRPEYAVNSIKTDVHSPKNFRIIGTLQNSAEFSEAFHCRKNSYMNPEKKCRVW | 2.05 fold | 2.35 fold | 2.39 fold | 2.6 fold | 0.24 fold | 0.68 fold | 0.28 fold | 0.27 fold | 0.68 fold | 0.49 fold | 0.08 fold | 0.17 fold | 0.34 fold | 0.83 fold | 0.8 fold | 0.19 fold
2 | C12 (protein) YPYDVPDYAYPYDVPDYAYPYDVPDYAGSYDDGICKSSDCIKSAARLIQNMDATTEPCTDFFKYACGGWLKRNVIPETSSRYGNFDILRDELEVVLKDVLQEPKTEDIVAVQKAKALYRSCINESAIDSRGGEPLLKLLPDIYGWPVATENWEQKYGASWTAEKAIAQLNSKYGKKVLINLFVGTDDKNSVNHVIHIDQPRLGLPRRDYYECTGIYKEACTAYVDLMISVARLIRQEERLPIDENQLALEMNKVMELEKEIANATAKPEDRNDPMLLYNKMTLAQIQNNFSLEINGKPFSWLNFTNEIMSTVNISITNEEDVVVYAPEYLTKLKPILTKYSARDLQNLMSWRFIMDLVSSLSRTYKESRNAFRKALYVTTSETATWRRCANYVNGNMENAVGRLYVEAAFAGESKHVVEDLIAQIREVFIQTLDDLTWMDAETKKRAEEKALAIKERIGYPDDIVSNDNKLNNEYLELNYKEDEYFENIIQNLKFSQSKQLKKLREKVDKDEWISGAAVVNAFYSSGRNQIVFPAGILQPPFFSAQQSNSLNYGGIGMVIGHEITHGFMDNGRNFNKDVDLVDWWTQQSASNFKEQSQCMVYQYGNFSWDLAGGQHLNGINTLGENIADNGGLGQAYRAYQNYIKKNGEEKLLPGLDLNHKQLFFLNFAQVWCGTYRPEYAVNSIKTDVHSPKNFRIIGTLQNSAEFSEAFHCRKNSYMNPEKKCRVW | – | 2.11 fold | – | 2.04 fold | 0.24 fold | 0.83 fold | – | 0.32 fold | – | 0.84 fold | – | 0.26 fold | 0.43 fold | – | 0.79 fold | 0.18 fold
3 | C11 (protein) YPYDVPDYAYPYDVPDYAYPYDVPDYAGSYDDGICKSSDCIKSAARLIQNMDATTEPCTDFFKYACGGWLKRNVIPETSSRYGNFDILRDELEVVLKDVLQEPKTEDIVAVQKAKALYRSCINESAIDSRGGEPLLKLLPDIYGWPVATENWEQKYGASWTAEKAIAQLNSKYGKKVLINLFVGTDDKNSVNHVIHIDQPRLGLPRRDYYECTGIYKEACTAYVDLMISVARLIRQEERLPIDENQLALEMNKVMELEKEIANATAKPEDRNDPMLLYNKMTLAQIQNNFSLEINGKPFSWLNFTNEIMSTVNISITNEEDVVVYAPEYLTKLKPILTKYSARDLQNLMSWRFIMDLVSSLSRTYKESRNAFRKALYVTTSETATWRRCANYVNGNMMNAVGRLYVEAAFAGESKHVVEDLIAQIREVFIQTLDDLTWMDAETKKRAEEKALAIKERIGYPDDIVSNDNKLNNEYLELNYKEDEYFENIIQNLKFSQSKQLKKLREKVDKDEWISGAAVVNAFYSSGRNQIVFPAGILQPPFFSAQQSNSLNYGGIGMVIGHEITHGFMDNGRNPNKDWDLVDWWTQQSASNFKEQSQCMVYQYGNFSWDLAGGQHLNGINTLGENIADNGGLGQAYRAYQNYIKKNGEEKLLPGLDLNHKQLFFLNFAQVWCGTYRPEYAVNSIKTDVHSPKNFRIIGTLQNSAEFSEAFHCRKNSYMNPEKKCRVW | – | 2.19 fold | – | 2.14 fold | 0.24 fold | 0.61 fold | – | 0.28 fold | – | 0.66 fold | – | 0.19 fold | 0.35 fold | – | 0.49 fold | 0.11 fold
4 | C13 (protein) YPYDVPDYAYPYDVPDYAYPYDVPDYAGSYDDGICKSSDCIKSAARLIQNMDATTEPCTDFFKYACGGWLKRNVIPETSSRYGNFDILRDELEVVLKDVLQEPKTEDIVAVQKAKALYRSCINESAIDSRGGEPLLKLLPDIYGWPVATENWEQKYGASWTAEKAIAQLNSKYGKKVLINLFVGTDDKNSVNHVIHIDQPRLGLPSGDYYECTGIYKEACTAYVDLMISVARLIRQEERLPIDENQLALEMNKVMELEKEIANATAKPEDRNDPMLLYNKMTLAQIQNNFSLEINGKPFSWLNFTNEIMSTVNISITNEEDVVVYAPEYLTKLKPILTKYSARDLQNLMSWRFIMDLVSSLSRTYKESRNAFRKALYVTTSETATWRRCANYVNGNMMNAVGRLYVEAAFAGESKHVVEDLIAQIREVFIQTLDDLTWMDAETKKRAEEKALAIKERIGYPDDIVSNDNKLNNEYLELNYKEDEYFENIIQNLKFSQSKQLKKLREKVDKDEWISGAAVVNAFYSSGRNQIVFPAGILQPPFFSAQQSNSLNYGGIGMVIGHEITHGFMDNGRNFNKDVDLVDWWTQQSASNFKEQSQCMVYQYGNFSWDLAGGQHLNGINTLGENIADNGGLGQAYRAYQNYIKKNGEEKLLPGLDLNHKQLFFLNFAQVWCGTYRPEYAVNSIKTDVHSPKNFRIIGTLQNSAEFSEAFHCRKNSYMNPEKKCRVW | – | 1.78 fold | – | 1.56 fold | 0.24 fold | 0.39 fold | – | 0.3 fold | – | 0.36 fold | – | 0.18 fold | 0.35 fold | – | 0.91 fold | 0.18 fold
5 | C14 (protein) YPYDVPDYAYPYDVPDYAYPYDVPDYAGSYDDGICKSSDCIKSAARLIQNMDATTEPCTDFFKYACGGWLKRNVIPETSSRYGNFDILRDELEVVLKDVLQEPKTEDIVAVQKAKALYRSCINESAIDSRGGEPLLKLLPDIYGWPVATENWEQKYGASWTAEKAIAQLNSKYGKKVLINLFVGTDDKNSVNHVIHIDQPRLGLPSGDYYECTGIYKEACTAYVDLMISVARLIRQEERLPIDENQLALEMNKVMELEKEIANATAKPEDRNDPMLLYNKMTLAQIQNNFSLEINGKPFSWLNFTNEIMSTVNISITNEEDVVVYAPEYLTKLKPILTKYSARDLQNLMSWRFIMDLVSSLSRTYKESRNAFRKALYVTTSETATWRRCANYVNGNMMNAVGRLYVEAAFAGESKHVVEDLIAQIREVFIQTLDDLTWMDAETKKRAEEKALAIKERIGYPDDIVSNDNKLNNEYLELNYKEDEYFENIIQNLKFSQSKQLKKLREKVDKDEWISGAAVVNAFYSSGRNQIVFPAGILQPPFFSAQQSNSLNYGGIGMVIGHEITHGFMDNGRNFNKDDDLVDWWTQQSASNFKEQSQCMVYQYGNFSWDLAGGQHLNGINTLGENIADNGGLGQAYRAYQNYIKKNGEEKLLPGLDLNHKQLFFLNFAQVWCGTYRPEYAVNSIKTDVHSPKNFRIIGTLQNSAEFSEAFHCRKNSYMNPEKKCRVW | – | 1.98 fold | – | 2.01 fold | 0.24 fold | 0.71 fold | – | 0.3 fold | – | 0.59 fold | – | 0.2 fold | 0.43 fold | – | 0.72 fold | 0.24 fold
6 | C15 (protein) YPYDVPDYAYPYDVPDYAYPYDVPDYAGSYDDGICKSSDCIKSAARLIQNMDATTEPCTDFFKYACGGWLKRNVIPETSSRYGNFDILRDELEVVLKDVLQEPKTEDIVAVQKAKALYRSCINESAIDSRGGEPLLKLLPDIYGWPVATENWEQKYGASWTAEKAIAQLNSKYGKKVLINLFVGTDDKNSVNHVIHIDQPRLGLPSGDYYECTGIYKEACTAYVDFMISVARLIRQEERLPIDENQLALEMNKVMELEKEIANATAKPEDRNDPMLLYNKMTLAQIQNNFSLEINGKPFSWLNFTNEIMSTVNISITNEEDVVVYAPEYLTKLKPILTKYSARDLQNLMSWRFIMDLVSSLSRTYKESRNAFRKALYVTTSETATWRRCANYVNGNMMNAVGRLYVEAAFAGESKHVVEDLIAQIREVFIQTLDDLTWMDAETKKRAEEKALAIKERIGYPDDIVSNDNKLNNEYLELNYKEDEYFENIIQNLKFSQSKQLKKLREKVDKDEWISGAAVVNAFYSSGRNQIVFPAGILQPPFFSAQQSNSLNYGGIGMVIGHEITHGFMDNVRNFNKDDDLVDWWTQQSASNFKEQSQCMVYQYGNFSWDLAGGQHLNGINTLGENIADNGGLGQAYRAYQNYIKKNGEEKLLPGLDLNHKQLFFLNFAQVWCGTYRPEYAVNSIKTDVHSPKNFRIIGTLQNSAEFSEAFHCRKNSYMNPEKKCRVW | – | 2.52 fold | – | 2.72 fold | 0.24 fold | 0.44 fold | – | 0.46 fold | – | 0.75 fold | – | 0.25 fold | 0.52 fold | – | 0.7 fold | 0.24 fold
